{
  "source": "the nanobody polyreactivity screen of Harvey et al. (2022)",
  "data": [
    {"test": "yeast display, Sf9 membrane polyspecificity reagent, FACS + sequencing; frameworks hold sequencing errors", "summary_of_the_method": "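Polyreactivity labels are assigned by the sorting gate from which each nanobody was recovered. The gates were low and high (top ~1%), set on anti-HA fluorescence for expression and streptavidin fluorescence for reagent binding. Before sorting, galactose-induced (36–48 hours) yeast display cells were stained for 1 hour at 4 °C with 10% biotinylated, detergent-solubilized Sf9 membrane reagent.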", "values": [
      {"sequence": "QVQLVESGGGLVQAGGSLRLSCAASGLIFWGYTMGWYRQAPGKEREFVAAISKSAGSTFYADSVKGRFTISRDNAKNTVYLQMNSLKPEDTAVYYCATGGFPGARVAYDYYYWGQGTQVTVSS", "polyreactivity (PSR sort gate)": "low polyreactivity"},
      {"sequence": "QVQLVESGGGLVQAGGSLRLSCAASGLIFWGYTMGWYRQAPGKERELVAAISRRGGRTYYADSVKGRFTISRDNAKNTVYLQMNSLKPEDTAVYYCNADITSSGPKSDYWGQGTQVTVSS", "polyreactivity (PSR sort gate)": "high polyreactivity"},
      {"sequence": "QVQLVESGGGLVQAGGSLRLSCAASGLIFWLNAMGWYRQAPGKERELVAAISWTDGTTYYADSVKGRFTISRDNAKNTVYLQMNSLIPEDTAVYYCAAEQVTIEDGVYFDFNSWGQGTQVTVSS", "polyreactivity (PSR sort gate)": "low polyreactivity"},
      {"sequence": "QVQLVESGGGLVQAGGSLRLSCAASGLIFWVYTMGWYRQAPGKERELVASISWNGGSTYYADSVKGRFTISRDNAKNTVYLQMNSLKPEDTAVYYCAAGARYVQRDYWGQGTQVTVSS", "polyreactivity (PSR sort gate)": "low polyreactivity"},
      {"sequence": "QVQLVESGGGLVQAGGSLRLSCAASGLIFWYYTMGWYRPAPGKERELVAAITIGGSTYYADSVKGRFTISRDNAKNTVYLQMNSLKPEDTAVYYCNTRRGRSQGGRYEYDYWGQGTQVTVSS", "polyreactivity (PSR sort gate)": "low polyreactivity"},
      {"sequence": "QVQLVESGGGLVQAGGSLRLSCAASGLIFYDNAMGWYRQAPGKERELVAAISWGGGTTYYADSVKGRFTISRDNAKNTVYLQMISLKPDDTAVYYCAAEEALFYDFYYVLLDYWGQGTQVTVSS", "polyreactivity (PSR sort gate)": "high polyreactivity"},
      {"sequence": "QVQLVESGGGLVQAGGSLRLSCAASGLIFYFNAMGWYRQAPGKERELVASITRTGSTNYADSVKGRFTISRDNAKNTVYLQMNSLKAEDTAVYYCAAYGPVYPHEYDYWGHGTQVTVSS", "polyreactivity (PSR sort gate)": "low polyreactivity"},
      {"sequence": "QVQLVESGGGLVQAGGSLRLSCAASGLIFYKNAMAWYRQAPGKERELVAAIDWSSGSTYYADSVKGRFTISRDNAKNTVYLQMNSLIPEDTAVYYCAAEYVHHASGDFRTLYYYWGQGTQVTVSS", "polyreactivity (PSR sort gate)": "low polyreactivity"},
      {"sequence": "QVQLVESGGGLVQAGGSLRLSCAASGLIFYPYAMGWYRQAPGKERELVAAITSDGSTYYADSVKGRFTISRDNAKNTVYLQMNSLKPEDTAVYYCAVVVAYFDDDYGLSWFYEYDYWGQGTQVTVSS", "polyreactivity (PSR sort gate)": "low polyreactivity"},
      {"sequence": "QVQLVESGGGLVQAGGSLRLSCAASGLIFYRNAMGWYRQAPGKERELVAAISVSGGSTYYADSVKGRFTISRDNAKNTVYLQMNSLKPEDTAVYYCAAKTWRSRGLEMDYWGQGTQVTVSS", "polyreactivity (PSR sort gate)": "high polyreactivity"},
      {"sequence": "QVQLVESGGGLVQAGGSLRLSCAASGLIFYRYAMGWYRQAPAKERELVADITRDSGSTSYADSVKGRFTISRDYAKNTVYLQMNSLKPEDTAVYYCNAGWVYTASGRQYYITYDYWGQGTQVTVSS", "polyreactivity (PSR sort gate)": "high polyreactivity"},
      {"sequence": "QVQLVESGGGLVQAGGSLRLSCAASGLIFYRYAMGWYRQAPGKERELVAAISSGGSTYYADSVKGRFTISRDNAKNTVYLQMNSLKPEDTAVYYCNAKVYGRRYDYWGQGTQVTVSS", "polyreactivity (PSR sort gate)": "high polyreactivity"},
      {"sequence": "QVQLVESGGGLVQAGGSLRLSCAASGLIFYSNAMGWYRQAPGKERELVAAISFNSGSTYYADSVKGRFTISRDNAKNTVYLQMNSLKPEDTAVYYCAKKRRFVVLSVQGDYWGQGTQVTVSS", "polyreactivity (PSR sort gate)": "low polyreactivity"},
      {"sequence": "QVQLVESGGGLVQAGGSLRLSCAASGLIFYSYTMGWYRQAPGKERELVAVISRSGTSTYYADSVKGRFTISRDNAKNTVYLQMNSLKPEDTAVYYCAALTRSGPYAYEYWGQGTQVTVSS", "polyreactivity (PSR sort gate)": "high polyreactivity"},
      {"sequence": "QVQLVESGGGLVQAGGSLRLSCAASGLIFYWNAMGWYRQAPGKERELVAGITSGGDTNYADSVKGRFTISRDNAKNTVYLQMNSLKPEDTAVYDCAAEGFRGYGYWGQGTQVTVSS", "polyreactivity (PSR sort gate)": "low polyreactivity"},
      {"sequence": "QVQLVESGGGLVQAGGSLRLSCAASGLIFYWYAMGWYRQAPGKEREFVAAISYGGTTTSYADSVKGRFTISRDNAKNTVYLQMNSLKPEDTAVYYCAAEESTSSWSINDYWGQGTQVTVSS", "polyreactivity (PSR sort gate)": "low polyreactivity"},
      {"sequence": "QVQLVESGGGLVQAGGSLRLSCAASGLIFYYYAMGWYRQAPGKERELVAAITRGGRTYYADSVKGRFTISRDNAKNTVYLQMNSLKPEDTAVYYCNTVSVKSGLDYWGQGTQVTVSS", "polyreactivity (PSR sort gate)": "high polyreactivity"},
      {"sequence": "QVQLVESGGGLVQAGGSLRLSCAASGLIFYYYVMGWYRQAPGKERELVARISTSGGSTYYADSVKGRFTISRDNAKNTVYLQMNSLKPEDTAVYYCAADHYGGRDYWGQGTQVTVSS", "polyreactivity (PSR sort gate)": "low polyreactivity"},
      {"sequence": "QVQLVESGGGLVQAGGSLRLSCAASGLIIPRYAMGWYRQAPGKERELVAAITYTGGSTYYADSVKGRFTISRDNAKNTVYLQMNSLKPEDTSVYYCAVVVGYTDSPYSYDYWGQGTQVTVSS", "polyreactivity (PSR sort gate)": "low polyreactivity"},
      {"sequence": "QVQLVESGGGLVQAGGSLRLSCAASGLIIVYNAIGWYRHAPGKERELVAGITSGGSTNYADSEKGRFTISRDNAKKTVYLQMNSLKPEDTAVYYCNAPVTGAGTYPPYDSWGQGTQVTVSS", "polyreactivity (PSR sort gate)": "high polyreactivity"},
      {"sequence": "QVQLVESGGGLVQAGGSLRLSCAASGLILGRYAMGWYRQAPGKERELVAAITRGGRTYYADSVKGRFTISRDNAKNTVYLQMNSLKPEDPAVYYCAATFGYTRNDYDYWGHGTQVTVSS", "polyreactivity (PSR sort gate)": "high polyreactivity"},
      {"sequence": "QVQLVESGGGLVQAGGSLRLSCAASGLILGVYSMGWYRQAPGKEREFVASINYGGGSTYYADSGKGRFTISRDNAKNTVYLQMNSLKPEDTAVYYCNARSRWGGTRLYSYDYWGQGTQVTVSS", "polyreactivity (PSR sort gate)": "low polyreactivity"},
      {"sequence": "QVQLVESGGGLVQAGGSLRLSCAASGLILGYYAMGWYRQAPGKERELVAAITSSGTTTYYADSVKGRFTISRDNAKNTVYLQMNSLKPEDTAVYYWAALYIGKKRFNYWGQGTQVNVSS", "polyreactivity (PSR sort gate)": "high polyreactivity"},
      {"sequence": "QVQLVESGGGLVQAGGSLRLSCAASGLILQYYVMGWYRQAPGKERELVAAITRSGGGTYYADSVKGRFTISRDNAKNTVYLQMNSLKPEDTAVYYCADRQPYRFHGSEYDYWGQGTQVNVSS", "polyreactivity (PSR sort gate)": "high polyreactivity"},
      {"sequence": "QVQLVESGGGLVQAGGSLRLSCAASGLILRKYAMGWYRQAPGKEREFVAAITQTGSRSYYADSVKGRFTISRDNAKNTVYLQMNSLKPEDTAVYYCAARGTRAYRTYDYWGQGTQVTVSS", "polyreactivity (PSR sort gate)": "high polyreactivity"},
      {"sequence": "QVQLVESGGGLVQAGGSLRLSCAASGLILTRYAMGWYRQAPGKERELVAAITKNGGSTYYADSVKGRFTISRDNAKNTVYLLMNSLKPEDTAVYYCNVCPRRVDRSRAASSDYDYWGQGSQVTVSS", "polyreactivity (PSR sort gate)": "high polyreactivity"},
      {"sequence": "QVQLVESGGGLVQAGGSLRLSCAASGLILTWNAMGWYRQAPGKERELVAAISRSDGITYYADSVKGRFTISRDTAKNTVYIQMNSLKPEDTAVYYCAKDGVPKGRGGAYYEYDYWGQGTQVTVSS", "polyreactivity (PSR sort gate)": "low polyreactivity"},
      {"sequence": "QVQLVESGGGLVQAGGSLRLSCAASGLILVPNTMGWYRQAPGKERELVAAISYSGGGTYYADSVKGRFTISRDNAKNTVYLQMNSLKPEDTAVYYCAADFYQSHFYRPRYDYWGQGTQVTVSS", "polyreactivity (PSR sort gate)": "low polyreactivity"},
      {"sequence": "QVQLVESGGGLVQAGGSLRLSCAASGLILYFNARGWYRQAPGKERELVADISSSGSSTYYADSVKGRFTISRDNAKNTVYLQMNSLKPEDTAVYYCAAGYYGEYWRSWYDYWGQGTQVTVSS", "polyreactivity (PSR sort gate)": "low polyreactivity"},
      {"sequence": "QVQLVESGGGLVQAGGSLRLSCAASGLILYRYAMGWYRQAPGKERELVAAITTSGSSTFYADSVKGRFTISRDNAKNTVYLQMNSLKPEDTAVYYCAATRPRYGIYWYDYWGQGTQVTVSS", "polyreactivity (PSR sort gate)": "high polyreactivity"},
      {"sequence": "QVQLVESGGGLVQAGGSLRLSCAASGLILYSYAMGWYRQAPGKERELVADISSGGITNYADSVKGRFTISRDNAKNTVYLQMNSLKPEDTAVYYCAADTRTSYYNDDYDYWGQGTQVTVSS", "polyreactivity (PSR sort gate)": "low polyreactivity"},
      {"sequence": "QVQLVESGGGLVQAGGSLRLSCAASGLIMRTNVMGWYRQPPGKERELVAAINFRTGSTYYADSVKGRFTISRDHAKNTVYLQMNSLKPEDTAVYYCAKAERRHYDYWGQGTQVTVSS", "polyreactivity (PSR sort gate)": "low polyreactivity"},
      {"sequence": "QVQLVESGGGLVQAGGSLRLSCAASGLISGDYAMGWYRQAPGKERELVARITSGDSTNYADSVKGRFTISRDNAKNTVYLQMNSLKPEDTAVYYCAAKRYVFQNDYWGQGTQVTVSS", "polyreactivity (PSR sort gate)": "low polyreactivity"},
      {"sequence": "QVQLVESGGGLVQAGGSLRLSCAASGLNFARNAMGWYRQAPGKERELVASITSGGSTNYADSVKGRFTISRDNAKNTVYLQMNSLKPEDTAVYFCNKAYFFPYPRYRYEYWGQGTQVTVSS", "polyreactivity (PSR sort gate)": "high polyreactivity"},
      {"sequence": "QVQLVESGGGLVQAGGSLRLSCAASGLTFADYAMGWYRQAPGKERELVAAISRRGGSTYYADSVKGRFTISRDNAKNTVYLQMNSLKPEDTAVYYCAAGNRVNRFDYWGQGTQVTVSS", "polyreactivity (PSR sort gate)": "high polyreactivity"},
      {"sequence": "QVQLVESGGGLVQAGGSLRLSCAASGLTFAFYAMGWYRQAPGKEREFVAAITTGGSTYYADSVKGRFTISRDNAKNTVYLQMNSLKPEDTAVYYCAADLYRRRGQFDYWGQGTQVTVSS", "polyreactivity (PSR sort gate)": "high polyreactivity"},
      {"sequence": "QVQLVESGGGLVQAGGSLRLSCAASGLTFAQNAMGWYRQAPGKERELVAAITRSGGRTYYADSVKGRFTISRDNSKNTVYFQMNSLKPEDTAVYYCAARVLQYSGYYYWGQGTQVTVSS", "polyreactivity (PSR sort gate)": "high polyreactivity"},
      {"sequence": "QVQLVESGGGLVQAGGSLRLSCAASGLTFARYAMGWYRQAPGKERELVAGISWSGGRTYYADSVKGRFTISRDNAKNTVYLQMNSLKPEDTAVYYCATTQFQRSGYYYWGQGTQVTVSS", "polyreactivity (PSR sort gate)": "high polyreactivity"},
      {"sequence": "QVQLVESGGGLVQAGGSLRLSCAASGLTFAVYAMGWYRQAPGKERELVAAITYSGSRTYYADSVKGRFTISRDNAKNTVYLQMNSLKPEDTAVYYCNALYRRDIKFYYWGQGTQVTVSS", "polyreactivity (PSR sort gate)": "high polyreactivity"},
      {"sequence": "QVQLVESGGGLVQAGGSLRLSCAASGLTFAYYAMGWYRQAPGKERELVAVISSAGSTYYADSVKGRFTISRDNAKNTVYLQMNSLNPEDTAVYYCAARAPSSISQTRGMYYWGQGTQVTVSS", "polyreactivity (PSR sort gate)": "high polyreactivity"},
      {"sequence": "QVQLVESGGGLVQAGGSLRLSCAASGLTFAYYVMGSYRQAPWKERELVAAISRRGGSTYYADSVKGRFTISRDNAKNTVYLQMNSLKPEDTAVYYCNTDWPLPNGGEPGYWGQGTQVTVSS", "polyreactivity (PSR sort gate)": "high polyreactivity"}
    ]}
  ]
}
